Measured values: publication PMC6602975

Columns and labels:
Assay in all cases: EMSA
[1] = tested on: Orc1 BAH A2P (Saccharomyces cerevisiae); conditions: 10 mM Tris pH 7.5, 50 mM NaCl, 2.5% glycerol, 1 mM DTT, room temperature 30 min; 25 or 50 nM nucleosome; native PAGE 0.2x TBE
[2] = tested on: Orc1 BAH E95K (Saccharomyces cerevisiae); conditions: apparent Kd; 10 mM Tris pH 7.5, 50 mM NaCl, 2.5% glycerol, 1 mM DTT, room temperature 30 min; 25 or 50 nM nucleosome; native PAGE 0.2x TBE
[3] = tested on: Orc1 BAH L79I (Saccharomyces cerevisiae); conditions: 10 mM Tris pH 7.5, 50 mM NaCl, 2.5% glycerol, 1 mM DTT, room temperature 30 min; 25 or 50 nM nucleosome; native PAGE 0.2x TBE
[4] = tested on: Orc1 BAH Lid swap (Saccharomyces cerevisiae); conditions: 10 mM Tris pH 7.5, 50 mM NaCl, 2.5% glycerol, 1 mM DTT, room temperature 30 min, 25 or 50 nM nucleosome, native PAGE 0.2x TBE
[5] = tested on: Orc1 BAH Q205D (Saccharomyces cerevisiae); conditions: apparent Kd; 10 mM Tris pH 7.5, 50 mM NaCl, 2.5% glycerol, 1 mM DTT, room temperature 30 min; 25 or 50 nM nucleosome; native PAGE 0.2x TBE
[6] = tested on: Orc1 BAH R202E (Saccharomyces cerevisiae); conditions: 10 mM Tris pH 7.5, 50 mM NaCl, 2.5% glycerol, 1 mM DTT, room temperature 30 min; 25 or 50 nM nucleosome; native PAGE 0.2x TBE
[7] = tested on: T1, Orc1 BAH WT (Saccharomyces cerevisiae); conditions: apparent Kd, 10 mM Tris pH 7.5, 50 mM NaCl, 2.5% glycerol, 1 mM DTT, room temperature 30 min, 25 or 50 nM nucleosome, native PAGE 0.2x TBE
T1 sequence: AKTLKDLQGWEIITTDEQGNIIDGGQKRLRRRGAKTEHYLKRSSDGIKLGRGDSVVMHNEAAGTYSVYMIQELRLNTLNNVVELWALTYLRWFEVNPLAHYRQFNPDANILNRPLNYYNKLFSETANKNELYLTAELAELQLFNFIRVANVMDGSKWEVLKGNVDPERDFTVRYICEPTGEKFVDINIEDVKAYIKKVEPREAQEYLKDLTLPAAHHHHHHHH

[8] = tested on: Sir3 BAH D205N (Saccharomyces cerevisiae); conditions: apparent Kd, 10 mM Tris pH 7.5, 50 mM NaCl, 2.5% glycerol, 1 mM DTT, room temperature 30 min, 25 or 50 nM nucleosome, native PAGE 0.2x TBE
[9] = tested on: Sir3 BAH D205Q (Saccharomyces cerevisiae); conditions: apparent Kd, 10 mM Tris pH 7.5, 50 mM NaCl, 2.5% glycerol, 1 mM DTT, room temperature 30 min, 25 or 50 nM nucleosome, native PAGE 0.2x TBE
[10] = tested on: Sir3 BAH Lid D205Q (Saccharomyces cerevisiae); conditions: apparent Kd, 10 mM Tris pH 7.5, 50 mM NaCl, 2.5% glycerol, 1 mM DTT, room temperature 30 min, 25 or 50 nM nucleosome, native PAGE 0.2x TBE
[11] = histone H4 K16ac (genetically encoded), DNA unmodified

WT nucleosome (147 bp 601, unmodified)
Kd [1]: 1900 nM | Kd [2]: 4400 nM | Kd [3]: 400 nM | Kd [4]: 700 nM | Kd ([4]; apparent Kd, comparison set with H4K16ac): 600 nM | Kd [5]: 5100 nM | binding signal (fold decrease in affinity vs Orc1 WT) [6]: 4.9 | Kd [7]: 1300 nM | Kd ([7]; reference set for mutants): 1100 nM | Kd [8]: 220 nM | Kd [9]: 300 nM | Kd [10]: 1000 nM

H4K16Q nucleosome (147 bp 601)
Kd ([4]; histone H4 K16Q (acetyl mimic), DNA unmodified): 1400 nM

H4K16ac nucleosome (147 bp 601)
Kd ([4]; apparent Kd, histone H4 K16ac (genetically encoded), DNA unmodified): 3700 nM | Kd [7, 11]: 1500 nM | Kd [8, 11]: 810 nM | Kd [9, 11]: 1200 nM | Kd [10, 11]: 1700 nM
